Values quoted from earlier work, collected in article PMC8228819, “Comparison of a Short Linear Antimicrobial Peptide with Its Disulfide-Cyclized and Cyclotide-Grafted Variants against Clinically Relevant Pathogens” (Microorganisms, 2021).
“Also recorded” adds a separate entry of the source.

Columns and labels:
[1] = cited from earlier work
Excerpt: These loops were previously found to be abl ... || Fractions f4 to f6 of [L6-optP7]Mco were initially tested against P. aeruginosa, E. coli, and MRSA (Table 1) using a rich media, Mueller–Hinton broth (MH), with all fractions displaying about the same moderate activity (within errors of the method). […] Calcium (Ca^2+) and magnesium (Mg^2+) often have the strongest effect on the antimicrobial activity of AMPs; their theoretical concentration in MH brot ...

red blood cells = details: cited from earlier work
Excerpt: The 9mer AMP was grafted into loops 5 and 6 of MCoTI-II. These loops were previously found to be abl ...

[2] = cited from earlier work; remark: listed apart in the source
Excerpt: We therefore followed two cyclization strategies: (i) a simple disulfide-cyclization by introduction of N- and C-terminal cysteines, and (ii) grafting onto an extremely stable scaffold with three disulfide bridges and backbone cyclization. The MCoTI-II cyclotide scaffold was used because of its inherent non-cytotoxic nature. […] The linear peptide was ...

## Momordica trypsin inhibitor II (cyclo(SGSDGGVCPKILKKCRRDSDCPGACICRGNGYCG); also: three cystine-knot disulfides, pairing not given here; UniProt P82409 1-34, looked up) [MCoTI-II]
[1]
  Antimicrobial activity: does not exhibit any antimicrobial activity; also recorded: does not exhibit any antimicrobial effects
Red blood cells
  Hemolytic activity towards red blood cells: does not show hemolytic activity
[2]
  Stability in human serum: high stability
